In this experiment the target is receptors on glutaraldehyde-fixed HeLa cells. Briefly: competition ligand assay on fixed HeLa cells; 100 µg E. coli lysate (F11.2 cDNA); competitor: ^35 S-labeled trichomonad AP65; densitometry of fluorograms.

Among the data in US5922563 are percent decrease of parasite AP65 binding values, retold here.

Regarding “recombinant AP65-1 adhesin expressed in E. coli from cDNA clone F11.2 (ligand)”, the percent decrease of parasite AP65 binding was 55%.
